The record followed here is the DeepSol protein solubility set.

The data set can be described thus: soluble on expression in E. coli; label from the status in PepcDB or PDB records.
Take “MTKKKVYNKRKRKEASIRVLEAIREKRKQQLAENARLEAEQAEQDVAPEPIDVQDPVINAGNIVEDAEPLNVNPSPPQPRKFNFRVANLEIARQAKISQNLMKTSETASTSSPVRQQVKTEIVPRVSQRTIVKTQALPRVNAPVLSSVPAKNPLPPKFVYINTAGLKRKRDDDKNTPSTSNSITLNPSSRGDQTQFIVHLQRTIERLEKEKAALTEKLTMREDEIKVFSVEFVNIQKENVKLMKENKAKESQISNQSIQVRNSWKFADLFKKELQKSRKDVSEVKWKIDKIEKKVGIKKPTPRKKPDVKLINPEDISLMSDRTQDGEDSSDFGSPLAKYLKPDQPSTSSACYGKPFYFESTSSSSRKPITASPGPPGRTQISDQLNTGEVRYVVNSGKPFNFSSESNSRNLKLIPGYIKRPEFRYIKPEGFTSASYKAQSEGMSSFLKTGSSATPENSKKSAHFDMPDISSTPYKSHVVVESDEMNSSSSTIGGFESEKKDNGALGSQKSPMPDIATALHNIFDSKEVQSSSSTTGSSAPPENSKKSDHFDMPDISSTLYRSRVEPISSSSSGSTSTSAPRYVPKPIAQPARYAIPSPGALNALRRPPEWKGQRRHAPSYVKSRESVTFRGCSRFPVTSPHFAKAHLEPVTDGKDDSKIVKYRFVPKRPDFDGEREHKK”: the “soluble on expression in E. coli” value is reported as “not soluble”.
For “APQIQYKQLQLARLKILRELSNKRNSTVITMIHRQESIGLFGIPVYKFITIEDSEEILRAIRAAPKDKPIDLIIHTPGGLVLAATQIAKALKAHPAETRVIVPHYAMSGGTLIALAADKIIMDENAVLGPVDPQLGQYPAPSIVKAVEQKGADKADDQTLILADIAKKAINQVQNFVYNLLKDKYGEEKAKELSKILTEGRWTHDYPITVEEAKELGL” the value was “not soluble”; for “MSLGDITISFESSDIDRHLILGVDWLIEGNLYEDAVESSIALSRRFLLNGKVKSLEMFLDEKPIDDLLKNYQLSKIHEMDVDSTEDTSVLEIQQYRYLINIFKQYMEWEKTVKLLNSESNIPSIIEKFQEFFQSTFKLIKTFLVDLTENIDHKDHDILFEIRALYTPYLIMELHKGLVEAASLLRIPRFIKDALNITNLVANEDDKIYLLFQSSGKLKEYLQLVAQTATLTEGHHHHHH”, “soluble”; for “MGSDKIHHHHHHMSSYVVSQEDVKNFLNLPSMNDQEGISFAYATDPDALAKLIPAPLKLVAPVVCGYVVHMGKPSFGGPYLEQTLFALVSYKDKMMGSYPLTLLLHGPGAEAGLVAGREGAGIPKKLADHIELRRNDNSASATVERHGKTLLSVDWEAGDVNDPSILQTFGSQFALNKESEMNSFFFTHDLVQDKQGANHFENVELVATQMKSLADRVEPGKLSIQLASTEDDPFGELPVLKPLGAMWYHFATSTMFNTLHLEQVDADKTAPYLITGRYDRSMMNPLATTYII”, “not soluble”.
The result for “MTGKLYGNKDNFRTQKVLIAAKLANKTVTLAGDAAPADKFPLGVTPAFEGDALLFGAESIGLHLTGTSANAETVQWLQFAEGYLLPAVLGYVLPSVSAANFDKKTVEQYKNELNGQLQVLDRVLVKKTYLVGERLSLADVSVALDLLPAFQYVLDANARKSIVNVTRWFRTVVNQPAVKEVLGEVSLASSVAQFNQAKFTELSAKVAKSAPKAEKPKKEAKPAAAAAQPEDDEPKEEKSKDPFQDMPKGTFVLDNFKRSYSNEDTATKAIPHFWENFDADNWSIWKCEYKYPEDLTLAFMSCNLINGMYQRLEKLKKNAFASMILFGTDNNSTISGIWVWKGDKLAFELSPDWQVDYESYTWTKLDAKSDATKKEVNEYLMWEGDFGGKKFNQGKIFK” reads “soluble”; that for “MAAGESMAQRMVWVDLEMTGLDIEKDQIIEMACLITDSDLNILAEGPNLIIKQPDELLDSMSDWCKEHHGKSGLTKAVKESTVTLQQAEYEFLSFVRQQTPPGLCPLAGNSVHADKKFLDKHMPQFMKHLHYRIIDVSTVKELCRRWYPEDYEFAPKKAASHRALDDISESIKELQFYRNNIFKKKTDEKKRKIIENGETEKPVS”, “soluble”.
For “MADKLDEIIDKVASGQRKKDTIEDTEEEGTRKRKIEQFEDIERPNELSGFKKQKIEENSEIHAEETEESVEAQMVMKKPSEEPELKRRKILIHMEPSITETNPMRIWTVADDLALLTAVAHVQCIRFIHNSLTFSRKFTFSDVEERYCQLMFDEEISKSAKVRLDAMPHRLKAQIEARTPFTRNEERTLMELAENQLKNARKERQDVENHTVLTILHFKKILDGNRQSFHKSRTPQVLSDHYRRIKGYRSEQGNNYNWQALEALTDGNTMDFDINAPLQAARSRYAAISRRPALSGILNRFKTSGSVPDNAIAMINGQFLQYAMTGKSVTMGRASLNEKIDIDLSKEGPATKVLEGRRQLFPVNKR” the value was “soluble”; for “SLEKRQGLEDIGRVRATIKNEFPSLTLLTQDWGDWDETYKFSQNHNQEYLEANVPSLTTLSKSTKIDFLALYDLNAIELFKGAYHPDMEREVNLHSTPSIRSLVASVLKTNREKKGLFKTDEGLLALVARPILTSEGRGPSHGVIIMGRFLSQLLLSSVGKKCPIPFELFIQDDKRLSAPEKALFAKLSATAPRFTPVFHQGFVYQTYPDIE”, “not soluble”.
For “VVVEDSGASFGESLLDTTSEPGKILVKRISGGSGITVTDYGDQVEIEASVTDALSLMYSTSTGGPASIAANALTDFDLSGALTVNSVGTGLTKSAAGIQLAAGKSGLYQITMTVKNNTVTTGNYLLRVKYGSSDFVVACPASSLTAGGTISLLIYCNVLGVVSLDVLKFSLCNDGAALSNYIINITAAKIN”, the “soluble on expression in E. coli” value is on record as “soluble”.
For “MVDNIEQQVYELVRPYAGTYLFNIKQVELTPEIDLDTDLSIDELEAEDLMNKFFEELNVERGNFRIETYFPNHPFSWHPFKKTEPVPVPDFTISMLIESAKAGKWLYD”, the “soluble on expression in E. coli” value was “not soluble”.
With “MLTFLFELDKNLPQKDEPRYDAYSKGFIEGDVTICASDSVFFQKSCMKVAELGIYLGQWMEQVQHGQNVPMKYETADREEVILGFFYEEDHNQWIVFSSWQEFELQERIATATLIESVQRYLYELNKELRMIEYPVTFDQYLRGERMMQLSYKRPCDSKADTTPIEVYNGSEQVGVVRGYYKNTLMRALDFIPKIGSNIIYEIKDSKDNIRVIAKDVSRQRQRRILVMYKDNHDAEHEILVCDGKLLDANFLFTFTYKAEEYVVHKTLFGMGKLLRKGYVIADWNIRLEEDMYYIEMNVYDEDYMQDQYLLLGVFHAVLYG”, the “soluble on expression in E. coli” value was “not soluble”.
The result for “EPGSSEGLGLLNVHTVLTGSKQLTKTEAVLNLNNQKAKVKGYEIHVGRSQVLDEQPLELDNGECDGAISECGQIMGTYLHGFFDEAEALNLITEWVNGTQVKQQDFEVLKEQGINRIADAIEQHMNLDFLFK” reads “not soluble”.
The result for “MAASGEEDMSELSPAAAPNLDWYEKPEETHAPEVDLETVIPPAQEPSNPAEPFCPRDLVPVVFPGPVSQEDCCQFTCELLKHILYQRHQLPLPYEQLKHFYRKAPQAEDTARKKAWLATEARNRKCQQALAELESVLSHLRDFFARTLVPQVLILLGGNALSPKEFYELDLSRLAPFGVDQGLNTAACLRRLFRAIFLADPFSELQTPPLMGTIVMVQGHRDCGEDWFQPKLNYRVPSRGHKLTVTLSCGRPSVPAMASEDYIWFQAPVTLKGFHE” reads “not soluble”; that for “MSLTSQVSSTTEQADEPVVGEQRKPAGAKDVRRLDRVIIRFAGDSGDGMQLTGDRFTSETASFGNDLSTLPNFPAEIRAPAGTLPGVSSFQLHFADHDILTPGDAPNVLVAMNPAALKANVSDLPRGAEVIVNTDEFTKRAMQKVGYGTSPLEDGSLDGYSVHPVPLTTLTVEALKEFELSRKEAERSKNMFALGLLSWMYHRPTEGTEKFLTTKFAKKPAIAAANIAAFRAGWNFGETTEDFAVSYEVAPAQSAFPAGTYRNISGNLALSYGLIAASRQADLPLYLGSYPITPASDILHELSKHKNFGVRTFQAEDEIAGIGAALGAAFGGSLAVTTTSGPGVALKSETIGLAVSLELPLLVVDIQRGGPSTGLPTKTEQADLLQAMYGRNGEAPVPVVAPRTPADCFEAAIEAARIALTYRTPVFLLSDGYLANGSEPWRIPETDGLPDLRVRFAQGPNHTLDDGTEVFWPYKRDPGTLARPWAIPGTPGLEHRIGGIEKQDGTGNISYDPANHDFMVRTRQAKIDGIDVPDIEVDDPDGASALVLGWGSTYGPITAAVRRLRTAGESIAQAHLRHLNPFPSNLGAVLKGYDKVVIPEMNLGQLATLIRAKYLVDAHSYNQVNGMPFKAEQLATALKEAIDEGHHHHHH”, “not soluble”.
The result for “SCIIFFKFDPRPVSKNAYRLILAANRDEFYSRPSKLADFWGNNNEILSGLDMEEGKEGGTWLGISTRGKLAALTNYLQPQLDWQARGRGELVTHFLTTDVDSLSYLKKVSMEGHLYNGFNLIAANLSTAKGDVICYYGNRGEPDPIVLTPGTYGLSNALLETPWRKLCFGKQLFLEAVERSQALPKDVLIASLLDVLNNKEAQLPDPAIEDQGGEYVQPMLSKYAAVCVRCPGYGTRTNTIILVDADGHVTFTERSMMDKDLSHWETRTYEFTLQS” reads “not soluble”.
Consider “MSLFILKNVTAVQLEPTLVLEGVDIAIEGSLIKAVGPNLRALYPQANYREMGGKLVMPGIVCAHNHFYSGLSRGIMANIAPCPDFISTLKNLWWRLDRALDEESLYYSGLICSLEAIKSGCSAVIDHHASPNFIKGSLNVLRKGFVEAGLRGMTCFETTDRNGGLAELQAGVEENILFAQAIDAAKAKGREPYLVEAHIGAHAPFTVPDEGLAMLREAVQVTGRGLHIHVAEDRYDMAHGHHHHGKEPIARLDEFDLVDSKTLIAHGIYLSPADIELLNSRDAFLVHNARSNMNNHVGYNMHLPEYRNLALGTDGIGSDMLEELKFAYFKHKDAGGALWPDSFARFLWNGNTLLERNFGAKFGRLEPGYKADLTICDYAAPTPLAPRNLGGHLAFGMGSSSVNSVMVEGRMVYQDREFAFDVEPIYQQASKVASRLWQRMDQLAEGHHHHHH”, for which the “soluble on expression in E. coli” value was “soluble”.
For “MGLELPLILGTSSVFRREQMERLGIAFQAASPDFDETPMLGESAPQTALRLAEGKARSLTGRFPEALIVGADQVAWCDGRQWGKPMNLANAQKMLMHLSGREIEFYSAIVLLNTVTGRMRRHIDKTVVVMRQLDELHILRYLEREPDAVYCSCALKSEDLGALLIERIESTDPNALIGLPVFRLVDFLKNEGVEVL” the value was “not soluble”; for “MSVVAAVDCGTNSIRLLISEQTPTGLREITRQMTIIRLGEGVDATGKIDPVAIERARVALSGYVDTMLAHKVTAVRMVATSATRDASNKDDFFAMTADLLGAVVPGACAEVISGAEEAELSFIGAVADIPDTDRPVCVIDLGGGSTEFVVGKKTGEILGAYSTQMGCVRLTERLMVSDPPTAEEIAQAREYVDTQLTVALDNVPIMQASMVVGCAGTFTTVAALALGLDSYDPQRIHGSVHTADRLREETQRLIGETSQQRAAHSVMHLGRADVIAGGSVVIEQILAMMQRLGVSDSVTISEKDILDGIVARLLEELEHHHHHH”, “soluble”; for “MSLCAREPRVPADRLVAEMVPPPRFDSVRFGTYVPDPNQPSQSEAVRVLEDFAGGLGEAPGTGGGRRGFFGLGRGRAPKTPAGPRGVYLDGGYGVGKTHLLASLWHATPAEPSRKAFGTFVELTNLVGALGFQQTVQTLSGHRLLCIDEFELDDPGDTVLVSSLLARLVEAGVALAATSNTLPGKLGEGRFAAADFLREIQGLSAHFRALRIDGEDYRHRGLPEAPAPYSDEQVTRAARATEGASLDDFAALLDHLARVHPSRYGALTDGLTAVCLTGVHPVPDQSTALRLVVLADRLYDREVPVLASGLPFDRLFGEEMLKGGYRKKYFRAISRLTALARDAARLVDTAAAALEHHHHHH”, “not soluble”.
For “TWCPGCGNFAILKAFERASRRVIEEGFDIAVSSGIGCHGKISDYLSLPGFHVIHGRVPPFLTGLKLANPNLVVVGFSGDGDGLNEGVEHLVHAARRNTDITIILHNNGVFGLTTGQVTATSPRGRKSRSTPRGNPEYPLNPCHLMLVSGATFVARVFAGEQERLSEVFYNAMKHKGFSFVEVMQPCVSFNNFWEMRK” the value was “not soluble”.
